Experimental findings from patent publication US20220298257A1 (ELPIS BIOPHARMACEUTICALS, published 2022) are described below.

Test [1] has as its target T1, full-length human CD22 fused with flag and Myc tags at the C-terminus, on HEK293 or K562 cells (human, UniProt P20273 20-847).
T1 construct: whole, on cells; also called CD22/K562; CD22/HEK293; not shown: C-terminal flag and Myc tags of the pCMV6-Entry vector
T1 sequence (looked up): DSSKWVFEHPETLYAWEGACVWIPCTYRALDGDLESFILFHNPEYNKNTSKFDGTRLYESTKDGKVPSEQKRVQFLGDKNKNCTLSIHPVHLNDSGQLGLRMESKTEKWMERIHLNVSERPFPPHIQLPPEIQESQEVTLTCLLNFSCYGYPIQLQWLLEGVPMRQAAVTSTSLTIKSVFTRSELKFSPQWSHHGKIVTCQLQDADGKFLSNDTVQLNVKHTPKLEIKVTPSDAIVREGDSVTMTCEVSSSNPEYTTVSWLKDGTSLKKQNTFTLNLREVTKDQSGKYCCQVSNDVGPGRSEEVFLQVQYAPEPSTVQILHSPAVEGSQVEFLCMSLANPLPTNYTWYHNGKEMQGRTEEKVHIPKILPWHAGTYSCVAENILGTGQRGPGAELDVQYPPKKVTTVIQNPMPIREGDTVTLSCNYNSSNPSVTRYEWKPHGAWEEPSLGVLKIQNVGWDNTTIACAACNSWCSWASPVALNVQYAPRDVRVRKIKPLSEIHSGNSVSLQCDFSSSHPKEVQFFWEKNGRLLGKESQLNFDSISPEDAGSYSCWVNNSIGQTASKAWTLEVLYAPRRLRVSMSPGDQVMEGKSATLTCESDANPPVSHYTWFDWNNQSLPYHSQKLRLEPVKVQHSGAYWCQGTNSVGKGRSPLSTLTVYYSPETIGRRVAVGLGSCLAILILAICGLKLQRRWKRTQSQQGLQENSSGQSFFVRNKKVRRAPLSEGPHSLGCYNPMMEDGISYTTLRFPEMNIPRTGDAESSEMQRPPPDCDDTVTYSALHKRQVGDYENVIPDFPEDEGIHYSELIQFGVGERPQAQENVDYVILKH
In words: FACS on CD22 K562 cells, scFv alone (M971 binning experiment).

Test [2] concerns the target T1, full-length human CD22 fused with flag …. In words: FACS on CD22 K562 cells, competitor 1.77 nM M971.
Test [3] shares this target. Kind of test: FACS on CD22 K562 cells, competitor 0.77 nM BL22.
Test [4] has the same target. In words: FACS, scFv titrated on CD22-expressing cells, anti-His Alexa 488.
Test [5] addresses T2, human CD22-Fc fusion protein (human, UniProt P20273 20-687, limits assumed).
T2 construct: also called recombinant CD22-Fc fusion protein; not shown: Fc part
T2 sequence (looked up): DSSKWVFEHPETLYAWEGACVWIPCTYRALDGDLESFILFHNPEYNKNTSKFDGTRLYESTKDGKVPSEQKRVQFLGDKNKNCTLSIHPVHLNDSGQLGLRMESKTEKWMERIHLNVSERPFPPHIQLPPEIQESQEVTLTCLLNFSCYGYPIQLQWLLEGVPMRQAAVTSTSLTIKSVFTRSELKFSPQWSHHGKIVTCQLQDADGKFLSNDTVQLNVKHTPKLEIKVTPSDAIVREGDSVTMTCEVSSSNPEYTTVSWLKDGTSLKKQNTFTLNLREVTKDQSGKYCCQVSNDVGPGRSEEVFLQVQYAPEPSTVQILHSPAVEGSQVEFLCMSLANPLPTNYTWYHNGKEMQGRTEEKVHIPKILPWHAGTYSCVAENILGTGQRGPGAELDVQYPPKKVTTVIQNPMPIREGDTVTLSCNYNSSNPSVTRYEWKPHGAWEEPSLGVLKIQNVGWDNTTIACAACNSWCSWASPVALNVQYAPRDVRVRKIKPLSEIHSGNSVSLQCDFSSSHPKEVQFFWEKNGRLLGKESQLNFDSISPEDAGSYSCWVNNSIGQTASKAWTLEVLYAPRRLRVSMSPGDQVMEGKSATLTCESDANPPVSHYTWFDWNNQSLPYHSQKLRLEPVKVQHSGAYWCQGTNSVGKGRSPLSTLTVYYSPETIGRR
Kind of test: SPR Biacore T200; CD22-Fc captured on Protein G chip, scFv as analyte.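 Note: run in 1×HBST buffer, with the response of reference flow cell 1 subtracted from the CD22 capture cell and kinetics fitted in Biacore T200 evaluation software.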

Test [6] concerns the target T1, full-length human CD22 fused with flag …. Kind of test: FACS on CD22 K562 cells, scFv alone (BL22 binning experiment).
For test [7] the target is unchanged. In words: FACS on CD22 K562 cells, competitor 5.13 nM M971.
Test [8] shares this target. In words: FACS on CD22 K562 cells, competitor 0.175 nM BL22.
Test [9] has the same target. Kind of test: cell-based or functional assay.
Test [10] has the same target. Kind of test: cell-based or functional assay. The source holds these as a separate data set.
For test [11] the target is unchanged. In words: ELISA, IgG format; antigen format not described.
In test [12] the target is T3, CD123 on the surface of CHO-K1 cells (UniProt P26951 19-378).
T3 construct: whole, on cells; Negative control cells that express CD123 but not CD22; also called CHOK1-CD123; cell surface CD123
T3 sequence (P26951 19-378 limits assumed): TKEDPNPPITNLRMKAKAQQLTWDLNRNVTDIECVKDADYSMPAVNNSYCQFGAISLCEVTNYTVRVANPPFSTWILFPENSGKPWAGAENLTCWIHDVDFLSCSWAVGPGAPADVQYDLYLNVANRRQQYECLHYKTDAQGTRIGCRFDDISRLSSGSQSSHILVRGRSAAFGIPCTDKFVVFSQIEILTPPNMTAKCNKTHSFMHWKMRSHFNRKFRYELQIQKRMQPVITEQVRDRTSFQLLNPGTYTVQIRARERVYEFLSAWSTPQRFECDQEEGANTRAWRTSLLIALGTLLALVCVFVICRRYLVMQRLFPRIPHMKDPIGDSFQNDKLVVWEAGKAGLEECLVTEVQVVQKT
Kind of test: FACS on CHO-K1 cells expressing CD123, anti-hFc Alexa 488.

In test [13] the target is T1, full-length human CD22 fused with flag …. In words: FACS on CD22-expressing cells (HEK293-CD22 by the table's head), anti-hFc Alexa 488.

B1: EP160-D02 scFv (scFv)
scFv: QVQLVQSGAEVKKPGASVKVSCKASGYTFTSYGISWVRQAPGQGLEWMGWISAYNGNTNYAQKLQGRVTMTTDTSTSTAYMELRSLRSDDTAVYYCARDPLEPLESDYWGQGTLVTVSSGGGGSGGGGSGGGGSEIVMTQSPATLSVSPGEGVTLSCRASQSVSSNLAWYQQRPGQAPRLLIYGASIKATDVPDRFSGGGSGTDFSLSITNLQSEDFAVYYCQQYHTWPPVTFGGGTKVEIK
notes: VH-VL orientation; made in E. coli, His-tag purified; also called EP160-D2; not shown: C-terminal flag and 6xHIS tag
For the molecule B1, the EC50 in test [1] is 0.125 nM; in test [2], 0.0946 nM; in [4], 0.24 nM; in [7], 0.144 nM. Also, the IC50 worked out at 0.0898 nM in test [3], 0.0822 nM in test [6] and 0.0811 nM in test [8]. The Kd in test [5] is 0.0194 nM. In [5], this molecule yielded a dissociation rate constant (koff) of 0.000107 s⁻¹. The on-rate (kon) in [5] came to 5.51e+06 M⁻¹ s⁻¹.

B2: EP160-D02 (IgG) (antibody, V domains shown)
VH: QVQLVQSGAEVKKPGASVKVSCKASGYTFTSYGISWVRQAPGQGLEWMGWISAYNGNTNYAQKLQGRVTMTTDTSTSTAYMELRSLRSDDTAVYYCARDPLEPLESDYWGQGTLVTVSS
VL: EIVMTQSPATLSVSPGEGVTLSCRASQSVSSNLAWYQQRPGQAPRLLIYGASIKATDVPDRFSGGGSGTDFSLSITNLQSEDFAVYYCQQYHTWPPVTFGGGTKVEIK
notes: also called EP160-D2 (IgG)
Take B2: the “EC50 in ADCC assay (Promega ADCC Bioreporter, CD22/HEK293 target cells)” value in [9] amounted to 1.95 nM. Also, in [10], the “T½ (Hour) of internalization, CD22/HEK293 cells, pHrodo secondary” value was 5.06 Hour. In addition, the concentration giving a half-maximal response (EC50) in [11] came out at 0.039 nM; in test [13], 0.101 nM. Also, in test [12], the binding result was “no binding”.
